# According to patent publication US12123009B2, “Methods and compositions for PPO herbicide tolerance in plants” (Monsanto Technology LLC, priority 2015, dated 2024):
# B1: Waterhemp: herbicide-sensitive wild-type protoporphyrinogen oxidase from Amaranthus tuberculatus (waterhemp), SEQ ID NO:21; plastid extract in Table 3 (protein, listed as Amaranthus tuberculatus)
# chain: MGNISEREEPTSAKRVAVVGAGVSGLAAAYKLKSHGLSVTLFEADSRAGGKLKTVKKDGFIWDEGANTMTESEAEVSSLIDDLGLREKQQLPISQNKRYIARDGLPVLLPSNPAALLTSNILSAKSKLQIMLEPFLWRKHNATELSDEHVQESVGEFFERHFGKEFVDYVIDPFVAGTCGGDPQSLSMHHTFPEVWNIEKRFGSVFAGLIQSTLLSKKEKGGENASIKKPRVRGSFSFQGGMQTLVDTMCKQLGEDELKLQCEVLSLSYNQKGIPSLGNWSVSSMSNNTSEDQSYDAVVVTAPIRNVKEMKIMKFGNPFSLDFIPEVTYVPLSVMITAFKKDKVKRPLEGFGVLIPSKEQHNGLKTLGTLFSSMMFPDRAPSDMCLFTTFVGGSRNRKLANASTDELKQIVSSDLQQLLGTEDEPSFVNHLFWSNAFPLYGHNYDSVLRAIDKMEKDLPGFFYAGNHKGGLSVGKAMASGCKAAELVISYLDSHIYVKMDEKTA
# B2: H_N10: E. coli wild-type HemG protoporphyrinogen oxidase, SEQ ID NO:4 (SEQ ID NO:13 lacking start methionine) (protein, listed as Escherichia coli)
# chain: MKTLILFSTRDGQTREIASYLASELKELGIQADVANVHRIEEPQWENYDRVVIGASIRYGHYHSAFQEFVKKHATRLNSMPSAFYSVNLVARKPEKRTPQTNSYARKFLMNSQWRPDRCAVIAGALRYPRYRWYDRFMIKLIMKMSGGETDTRKEVVYTDWEQVANFAREIAHLTDKPTLK
# Legend:
# [1] = tested on: hemG knockout E. coli strain; type: cell-based; conditions: LB medium plates (heme-free)
# [2] = tested on: hemG knockout E. coli strain; type: cell-based; conditions: LB liquid medium, acifluorfen (1 mM), flumioxazin (0.5 mM), lactofen (0.5 mM), fomesafen (1 mM), S-3100 (100 uM)
# F1 maize = experiment: Efficacy field trial of F1 maize; type: in vivo; conditions: F1 transgenic maize greenhouse and field data
# Protocol: This F1 population was segregating (50% hemizygous and 50% null) and selection for transgenic plants was not conducted prior to injury ratings. The overall average injury ratings for such a population are expected to be higher than a homogenous transgenic population since it is difficult to discern non-transgenic plants from transgenic plants. The trials were conducted at two locations with two replicates and 3 treatments per construct. Non-transgenic maize plants were used as a negative control. The herbicide application treatments were as follows: Treatment 1 was 0.036 lb ai/acre S-3100 applied at V2 followed by (fb) V4 fb V8; Treatment 2: was 0.072 lb ai/acre S-3100 applied at V2 fb V4 fb V8; Treatment 3: was 0.144 lb ai/acre S-3100 applied at V2 fb V4 fb V8. Crop Injury Percent ratings were assessed at the V2 growth stage (CIPV2) and at the V4 growth stage (CIPV4) at 5 to 7 days after treatment (the error V2 and error V4 are half of the least significant difference (LSD)). The crop injury ratings were combined for both locations.
# soybean plantlets = experiment: High-throughput soybean screening for herbicide tolerance (plantlets); type: in vivo, soybean (A3555); parameters: key: 0 for poor tolerance, high damage, low green coloration; 1 for some tolerance, average damage, moderate green coloration; 2 for good tolerance, low damage, high green coloration; conditions: S-3100 spray five weeks post-transformation, scored day four
# Text: A high-throughput plant transformation and screening method was used to evaluate large numbers of constructs in transgenic plants for herbicide tolerance in early transformation plantlet tissue. This allowed for faster and higher volume screening of construct configurations and PPO enzymes.
# This permitted the side-by-side comparison of seven different HemG PPO enzymes with thirty-seven different targeting peptides using the same promoter and 3′UTR elements for gene expression. These plant transformation constructs were used to transform soybean excised embryos (germplasm A3555) using A. tumefaciens and standard methods known in the art. Four hundred explants were inoculated for each construct resulting in twelve containers per construct. A sterile PPO herbicide solution was used for herbicide tolerance testing. The herbicide solution consisted of 0.3 g of S-3100 in crop oil concentrate (5.0 mL) and 495 mL of deionized water. This was filtered through a 0.45 micron Nalgene® Rapid-Flow™ Tissue Culture Filter Unit and Surfactant-Free Cellulose Acetate membrane filter unit (VWR, Radnor, PA, USA). The resulting sterile solution was shaken before application.
# At five weeks post-transformation, four of the twelve plant containers per construct were sprayed with two passes of the sterile PPO herbicide solution. The treated plantlets were then enclosed in the container and received at least 15 hours of light exposure post spray each day for four days. At the end of day four post application of S-3100, the treated plantlets were photographed and scored on a visual scale of green coloration (green coloration was representative of healthy photosynthetic plant tissue as compared to photo-bleached tissue) versus damage. The scoring values were 0 for poor tolerance, high damage, low green coloration; 1 for some tolerance, average damage, moderate green coloration; and 2 for good tolerance, low damage, high green coloration. The scoring for each construct is presented in Table 9, where n.d. indicates the analysis was not conducted.
# transgenic maize plants [3] = experiment: R0 multi-copy transgenic maize S-3100 spray test; type: in vivo, maize (LH244)
# Text: For maize in planta testing, immature maize (LH244) embryos were transformed with using Agrobacterium tumefaciens and standard methods known in the art. […] Leaf samples were collected from R0 plants and screened by PCR to determine the number of copies of the transgene inserted into the plant genome. […] Plants containing multiple copies (multi-copy) were sprayed as follows: […]
# transgenic maize plants [4] = experiment: R0 transgenic maize 40 g/ha S-3100 spray test; type: in vivo
# Text: H_N60 (SEQ ID NO:3). […] These five constructs had the same promoter plus leader plus intron combination, with two different targeting peptide (TP) sequences, and the same 3′UTR sequence. Leaf samples were taken from the R0 plants and analyzed by PCR to determine the transgene copy number. Single copy plants for up to 12 unique events per construct were transplanted to pots, selfed and outcrossed to generate R1 and F1 seed, respectively, for future testing. Multi-copy plants and extra single copy plants were sprayed with 40 grams/ha 5-3100 at approximately the V5 growth stage and injury ratings were taken 7 days after treatment. The average percent (%) injury for all plants expressing each PPO enzyme and the number of plants that were deemed highly tolerant (less than 10% injury) was noted, where each plant is a unique single or multi-copy transformant.
# [5] = 40 grams/ha S-3100 at V5, 7 days after treatment, R0 plants
molecule,measurement,setting,value
B1,restore growth of the transformed hemG knockout E. coli strain (PPO activity),[1],able to restore growth
same,growth of hemG knockout E. coli strain in the presence of a PPO herbicide,[2],sensitive
B2,injury rates when expressed in transgenic plants (crop tolerance to a PPO herbicide),F1 maize,reduced injury rates
same,coloration score,soybean plantlets; TP9,1
same,coloration score,soybean plantlets; TP12,1
same,coloration score,soybean plantlets; TP13,1
same,coloration score,soybean plantlets; TP14,0
same,coloration score,soybean plantlets; TP16,1
same,coloration score,soybean plantlets; TP18,1
same,coloration score,soybean plantlets; TP19,0
same,coloration score,soybean plantlets; TP20,0
same,coloration score,soybean plantlets; TP21,0
same,coloration score,soybean plantlets; TP22,1
same,coloration score,soybean plantlets; TP23,1
same,coloration score,soybean plantlets; TP24,0
same,coloration score,soybean plantlets; TP26,0
same,coloration score,soybean plantlets; TP27,1
same,coloration score,soybean plantlets; TP31,1
same,coloration score,soybean plantlets; TP33,1
same,coloration score,soybean plantlets; TP36,0
same,Average Injury,"transgenic maize plants [3]; Treatment 1: 5 g/ha S-3100 at V5 followed by 10 g/ha at V7, total 15 g/ha, 7 days after final treatment, H_N10 in construct 6",28.9%
same,Average Injury,"transgenic maize plants [3]; Treatment 2: 10 g/ha S-3100 at V5, 7 days after treatment, H_N10 in construct 16",24.2%
same,Average Injury,transgenic maize plants [4]; [5],39.5%
same,Highly Tolerant (number of plants with less than 10% injury),transgenic maize plants [4]; [5],31
same,injury rates when expressed in transgenic plants (crop tolerance to a PPO herbicide),transgenic maize plants [4]; R0 transgenic maize data,reduced injury rates
